The values that follow come from PMC11505469.

One assay has as its target Human FcRn. The assay can be described thus: SPR. On the technique in general: In SPR one partner is held on a chip, and binding of the other changes the refractive index at the surface.
The target of a further assay is CD3εδ. The assay is described as follows: SPR.

Consider ISB 2001 (from UniProt P01857), for which the Kd (as a rule, the concentration at which binding is half-saturated) with Human FcRn is 240 nM; with CD3εδ, 41 nM.
